We go through 1 substance from patent publication EP1207198A1.

The target of the assay is human brain-derived G protein-coupled receptor protein ZAQ (human). The assay is described as follows: cell-based or functional assay.

Regarding “Human type ZAQ ligand mature peptide (type G, 86 amino acid residues)”, the increase in the intracellular calcium ion concentration (FLIPR), EC50 was 0.096 nM.
